From patent publication EP4509523A1 (Deutsches Primatenzentrum GmbH (DPZ), dated 2025)

Target: T1, D2-KIR3DL2-IgG1-Fc (human, UniProt P43630 220-316, limits assumed)
T1 construct: domain: D2; also called D2 domain of KIR3DL2 as IgG1-Fc protein
Assay: flow cytometry on HEK-293 cells expressing FLAG-KIR3DX1rep, anti-IgG-Fc detection (Fig. 4C)

T1 sequence (P43630 other isoform, or with tags, fused parts or gaps limits assumed): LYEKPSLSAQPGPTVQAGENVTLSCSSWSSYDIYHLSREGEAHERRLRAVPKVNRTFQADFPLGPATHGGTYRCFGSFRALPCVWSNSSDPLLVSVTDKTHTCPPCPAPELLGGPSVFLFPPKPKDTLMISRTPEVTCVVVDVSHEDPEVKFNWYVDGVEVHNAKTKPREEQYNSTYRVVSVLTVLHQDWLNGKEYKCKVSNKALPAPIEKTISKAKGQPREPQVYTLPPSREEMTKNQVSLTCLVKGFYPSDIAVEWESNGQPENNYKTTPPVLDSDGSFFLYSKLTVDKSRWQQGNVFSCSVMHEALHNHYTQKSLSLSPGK

- binding result: no binding
B1: FLAG-KIR3DX1rep (receptor)
chain: QKICPHAGAQDKFSLSAWPSPVVPLGGRVTLSCHSHLRFVIWTIFQTTGTRSHELHTGLSNNITISPVTPEHAGTYRCVGIYKHASKWSAESNSLKIIVTGLFTKPSISAHPSSLVHAGARVSLRCHSELAFDEFILYKEGHIQHSQQLDQGMEAGIHYVEAVFSMGPVTPAHAGAYRCCGCFSHSRYEWSAPSDPLDIVITGKYKKPSLSTQVDPMMRLGEKLTLFCSSEISFDQYHLFRHGVAHGQWLSGGQRHREAFQANFSVGRATPVPGGTYRCYGSFNDSPYEWSAPSDPLQLYTTGNTKSTPLSFTESTPESDTPRPQGQSSNLHMLTGLSVAIISIGVCLSAFIGFWCYIKYHTTMANTEPTEGQRTDEEEPAAEETQEIIYAQLNHQALSQTGFPPASQCPHYLSEDPSIYITVHQAQAEARAAPSLWHKGHPR
notes: also called FLAG-tagged full-length KIR3DX1-repaired; full-length KIR3DX1 in its repaired form as cell surface receptor
